Target: the molecule itself
Experiment: SAXS

B1: EccCb1 enzyme, full length (Met1-Glu591), M. tuberculosis ESX-1 (enzyme)
chain: MTAEPEVRTLREVVLDQLGTAESRAYKMWLPPLTNPVPLNELIARDRRQPLRFALGIMDEPRRHLQDVWGVDVSGAGGNIGIGGAPQTGKSTLLQTMVMSAAATHSPRNVQFYCIDLGGGGLIYLENLPHVGGVANRSEPDKVNRVVAEMQAVMRQRETTFKEHRVGSIGMYRQLRDDPSQPVASDPYGDVFLIIDGWPGFVGEFPDLEGQVQDLAAQGLAFGVHVIISTPRWTELKSRVRDYLGTKIEFRLGDVNETQIDRITREIPANRPGRAVSMEKHHLMIGVPRFDGVHSADNLVEAITAGVTQIASQHTEQAPPVRVLPERIHLHELDPNPPGPESDYRTRWEIPIGLRETDLTPAHCHMHTNPHLLIFGAAKSGKTTIAHAIARAICARNSPQQVRFMLADYRSGLLDAVPDTHLLGAGAINRNSASLDEAVQALAVNLKKRLPPTDLTTAQLRSRSWWSGFDVVLLVDDWHMIVGAAGGMPPMAPLAPLLPAAADIGLHIIVTCQMSQAYKATMDKFVGAAFGSGAPTMFLSGEKQEFPSSEFKVKRRPPGQAFLVSPDGKEVIQAPYIEPPEEVFAAPPSAG
stoichiometry N: 12

Reference: article doi:10.1101/2021.05.31.446396 (bioRxiv, 2021)
